Patent US20240124602A1

Molecular target: canine CD20 (canine) (UniProt Q3C2E2)
Assay: flow cytometry on canine PBMCs without 18F6 (control), FSC-H/SSC-H subset, Event Count 9100; FL1-H = 2o FITC alone, FL2-H = CD21-PE

Chain of UniProt Q3C2E2 (Q3C2E2 whole entry): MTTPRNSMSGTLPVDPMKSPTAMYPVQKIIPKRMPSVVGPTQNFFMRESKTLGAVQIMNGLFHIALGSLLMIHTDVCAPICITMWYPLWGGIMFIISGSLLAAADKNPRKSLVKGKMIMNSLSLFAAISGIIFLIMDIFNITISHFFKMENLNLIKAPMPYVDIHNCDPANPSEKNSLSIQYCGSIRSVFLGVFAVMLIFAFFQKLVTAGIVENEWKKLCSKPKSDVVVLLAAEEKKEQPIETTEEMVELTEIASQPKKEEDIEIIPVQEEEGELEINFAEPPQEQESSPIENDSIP

quadrant number, lower left (FL1-H low, FL2-H low); unit not given: 72.5 | quadrant number, lower right (FL1-H low, FL2-H high); unit not given: 22.9 | quadrant number, upper left (FL1-H high, FL2-H low); unit not given: 2.18 | quadrant number, upper right (FL1-H high, FL2-H high); unit not given: 2.37
Substance: 2o FITC (antibody)
